Assay results as given in the supplement of paper PMC9112550, “Optimization of the antimicrobial peptide Bac7 by deep mutational scanning” (BMC Biology, 2022).

Tested on: Escherichia coli TOP10
Assay: shrunken log2 fold change of peptide-encoding DNA abundance (4.5 h post-induction vs induction); higher = less antimicrobial activity (less host growth inhibition)
Settings: time post-induction: 4.5 h; library: site-saturation at positions 5, 18, 19, 20
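Also: peptides expressed intracellularly from a pBAD plasmid library in pooled LB shake-flask culture, induced with 0.3% L-arabinose, DNA abundance read by NGS, three biological replicates, DESeq2 with apeglm shrinkage.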

| Sequence | shrunken log2 fold change |
| --- | --- |
| RRIRARPPRLPRPRPRPYPNPRP | -0.257 |
| RRIRCRPPRLPRPRPRPNMWPRP | -0.0109 |
| RRIRMRPPRLPRPRPRPYHHPRP | -0.702 |
| RRIRIRPPRLPRPRPRPHKVPRP | -0.0742 |
| RRIRGRPPRLPRPRPRPFLIPRP | -0.0796 |
| RRIRIRPPRLPRPRPRPDQAPRP | -0.002 |
| RRIRSRPPRLPRPRPRPRAAPRP | 0.504 |
| RRIRHRPPRLPRPRPRPWSKPRP | -0.301 |
| RRIRGRPPRLPRPRPRPIDEPRP | 0.433 |
| RRIRYRPPRLPRPRPRPVFYPRP | -1.05 |
| RRIRARPPRLPRPRPRPGDRPRP | -0.00146 |
| RRIRQRPPRLPRPRPRPECSPRP | -0.0561 |
| RRIRHRPPRLPRPRPRPTVTPRP | -0.0378 |
| RRIRDRPPRLPRPRPRPYSWPRP | 0.016 |
| RRIRSRPPRLPRPRPRPEETPRP | -0.00674 |
| RRIRIRPPRLPRPRPRPNHAPRP | -0.0782 |
| RRIRSRPPRLPRPRPRPCFVPRP | -0.378 |
| RRIRDRPPRLPRPRPRPRLHPRP | 0.11 |
| RRIRARPPRLPRPRPRPTGKPRP | 0.215 |
| RRIRYRPPRLPRPRPRPNEDPRP | -0.246 |
| RRIRDRPPRLPRPRPRPKEMPRP | -0.00146 |
| RRIRHRPPRLPRPRPRPVYCPRP | -0.49 |
| RRIRLRPPRLPRPRPRPRWYPRP | -0.206 |
| RRIRPRPPRLPRPRPRPHNYPRP | -0.631 |
| RRIRRRPPRLPRPRPRPRFMPRP | 0.055 |

| Sequence | shrunken log2 fold change |
| --- | --- |
| RRIRERPPRLPRPRPRPKLFPRP | -0.0593 |
| RRIRGRPPRLPRPRPRPPFKPRP | 0.659 |
| RRIRKRPPRLPRPRPRPCLPPRP | 0.0253 |
| RRIRPRPPRLPRPRPRPGDNPRP | -0.00764 |
| RRIRNRPPRLPRPRPRPQPNPRP | -0.047 |
| RRIRTRPPRLPRPRPRPPFDPRP | 0.104 |
| RRIRNRPPRLPRPRPRPQHFPRP | -0.0338 |
| RRIRLRPPRLPRPRPRPTADPRP | 0.346 |
| RRIRSRPPRLPRPRPRPWLVPRP | 0.0191 |
| RRIRERPPRLPRPRPRPQPQPRP | -0.0713 |
| RRIRPRPPRLPRPRPRPDIWPRP | 0.144 |
| RRIRCRPPRLPRPRPRPTNPPRP | -0.429 |
| RRIRCRPPRLPRPRPRPPNEPRP | 0.309 |
| RRIRCRPPRLPRPRPRPFGWPRP | 0.24 |
| RRIRFRPPRLPRPRPRPYAGPRP | -0.208 |
| RRIRWRPPRLPRPRPRPQNGPRP | 0.00668 |
| RRIRCRPPRLPRPRPRPHYSPRP | -0.723 |
| RRIRTRPPRLPRPRPRPGFEPRP | 0.613 |
| RRIRFRPPRLPRPRPRPYPHPRP | -1.04 |
| RRIRLRPPRLPRPRPRPFPFPRP | -0.254 |
| RRIRIRPPRLPRPRPRPQANPRP | 0.00435 |
| RRIRKRPPRLPRPRPRPQYPPRP | 0.131 |
| RRIRPRPPRLPRPRPRPRCWPRP | 0.689 |
| RRIRKRPPRLPRPRPRPSLCPRP | -0.239 |
| RRIRNRPPRLPRPRPRPYMHPRP | -0.671 |

| Sequence | shrunken log2 fold change |
| --- | --- |
| RRIRQRPPRLPRPRPRPNCMPRP | 0.188 |
| RRIRPRPPRLPRPRPRPGEIPRP | 0.21 |
| RRIRIRPPRLPRPRPRPKEPPRP | 0.0805 |
| RRIRFRPPRLPRPRPRPIEFPRP | 0.0129 |
| RRIRSRPPRLPRPRPRPSDPPRP | -0.397 |
| RRIRWRPPRLPRPRPRPMATPRP | 0.26 |
| RRIRLRPPRLPRPRPRPDWFPRP | -0.173 |
| RRIRPRPPRLPRPRPRPQRQPRP | 0.109 |
| RRIRNRPPRLPRPRPRPLPPPRP | 0.5 |
| RRIRQRPPRLPRPRPRPSNRPRP | -0.158 |
| RRIRWRPPRLPRPRPRPRMHPRP | 0.485 |
| RRIRQRPPRLPRPRPRPHVDPRP | -0.088 |
| RRIRLRPPRLPRPRPRPFREPRP | -0.0266 |
| RRIRWRPPRLPRPRPRPRCYPRP | -0.0698 |
| RRIRLRPPRLPRPRPRPEQIPRP | -0.0478 |
| RRIRVRPPRLPRPRPRPTLQPRP | 0.0594 |
| RRIRMRPPRLPRPRPRPQPKPRP | 1.77 |
| RRIRERPPRLPRPRPRPLSCPRP | 0.075 |
| RRIRVRPPRLPRPRPRPDSFPRP | -0.0784 |
| RRIRWRPPRLPRPRPRPAICPRP | -0.0928 |
| RRIRERPPRLPRPRPRPRINPRP | -0.427 |
| RRIRQRPPRLPRPRPRPFSPPRP | -0.0643 |
| RRIRTRPPRLPRPRPRPMMSPRP | -0.282 |
| RRIRSRPPRLPRPRPRPDHIPRP | -0.119 |
| RRIRCRPPRLPRPRPRPWLHPRP | -0.305 |

| Sequence | shrunken log2 fold change |
| --- | --- |
| RRIRFRPPRLPRPRPRPYPWPRP | -0.9 |
| RRIRRRPPRLPRPRPRPSVSPRP | -0.0175 |
| RRIRERPPRLPRPRPRPQYCPRP | -0.0302 |
| RRIRSRPPRLPRPRPRPARSPRP | 0.158 |
| RRIRIRPPRLPRPRPRPNFSPRP | -0.26 |
| RRIRQRPPRLPRPRPRPRTWPRP | -0.182 |
| RRIRHRPPRLPRPRPRPEHSPRP | -0.179 |
| RRIRERPPRLPRPRPRPGAEPRP | 0.372 |
| RRIRHRPPRLPRPRPRPRNSPRP | -0.05 |
| RRIRLRPPRLPRPRPRPELPPRP | -0.0217 |
| RRIRTRPPRLPRPRPRPPMEPRP | -0.00995 |
| RRIRHRPPRLPRPRPRPICQPRP | -0.113 |
| RRIRGRPPRLPRPRPRPNFHPRP | 0.611 |
| RRIRCRPPRLPRPRPRPDFIPRP | -0.383 |
| RRIRNRPPRLPRPRPRPSGVPRP | -0.0499 |
| RRIRVRPPRLPRPRPRPASVPRP | 0.0346 |
| RRIRDRPPRLPRPRPRPDFCPRP | -0.0409 |
| RRIRSRPPRLPRPRPRPHCMPRP | -0.344 |
| RRIRYRPPRLPRPRPRPPYFPRP | -0.262 |
| RRIRMRPPRLPRPRPRPQSLPRP | -0.0682 |
| RRIRWRPPRLPRPRPRPHWSPRP | -0.182 |
| RRIRWRPPRLPRPRPRPRWLPRP | 0.224 |
| RRIRDRPPRLPRPRPRPKKHPRP | -0.0344 |
| RRIRHRPPRLPRPRPRPYGSPRP | -0.0135 |
| RRIRMRPPRLPRPRPRPNTEPRP | -0.0533 |

| Sequence | shrunken log2 fold change |
| --- | --- |
| RRIRMRPPRLPRPRPRPRFPPRP | 0.573 |
| RRIRPRPPRLPRPRPRPIFSPRP | 0.14 |
| RRIRQRPPRLPRPRPRPRPDPRP | 0.191 |
| RRIRNRPPRLPRPRPRPCHWPRP | 0.065 |
| RRIRMRPPRLPRPRPRPSDGPRP | -0.205 |
| RRIRQRPPRLPRPRPRPNPFPRP | -0.26 |
| RRIRVRPPRLPRPRPRPEASPRP | 0.0108 |
| RRIRNRPPRLPRPRPRPHTNPRP | 0.0886 |
| RRIRDRPPRLPRPRPRPFAEPRP | 0.242 |
| RRIRARPPRLPRPRPRPVLDPRP | 0.185 |
| RRIRLRPPRLPRPRPRPRNEPRP | -0.0675 |
| RRIRYRPPRLPRPRPRPGQVPRP | -0.0686 |
| RRIRMRPPRLPRPRPRPYEPPRP | -0.352 |
| RRIRIRPPRLPRPRPRPDVPPRP | -0.372 |
| RRIRYRPPRLPRPRPRPWYMPRP | -0.838 |
| RRIRLRPPRLPRPRPRPAARPRP | 0.453 |
| RRIRPRPPRLPRPRPRPDHMPRP | -0.33 |
| RRIRNRPPRLPRPRPRPYTHPRP | -1.12 |
| RRIRGRPPRLPRPRPRPQCMPRP | 0.403 |
| RRIRVRPPRLPRPRPRPRWSPRP | 0.209 |
| RRIRLRPPRLPRPRPRPTGEPRP | 0.205 |
| RRIRRRPPRLPRPRPRPGGIPRP | 0.0225 |
| RRIRHRPPRLPRPRPRPQAVPRP | 0.00884 |
| RRIRFRPPRLPRPRPRPVCCPRP | -0.0027 |
| RRIRRRPPRLPRPRPRPKIRPRP | 0.0898 |
